Patent CN117126289A (SUNSHINE GUOJIAN PHARMACEUTICAL SHANGHAI CO LTD, dated 2023)

Experiments:
重组Human-TROP-2-HIS蛋白 = molecular target: T1, 重组Human-TROP-2-HIS蛋白 (human, UniProt P09758 27-274, limits assumed); assay: ELISA, coated TROP-2-HIS 200 ng/ml, HRP goat anti-human Fc
T1 construct: Bought protein; also called TROP-2-HIS蛋白 (恺佧, TRP-HM121); not shown: His tag
T1 sequence (looked up): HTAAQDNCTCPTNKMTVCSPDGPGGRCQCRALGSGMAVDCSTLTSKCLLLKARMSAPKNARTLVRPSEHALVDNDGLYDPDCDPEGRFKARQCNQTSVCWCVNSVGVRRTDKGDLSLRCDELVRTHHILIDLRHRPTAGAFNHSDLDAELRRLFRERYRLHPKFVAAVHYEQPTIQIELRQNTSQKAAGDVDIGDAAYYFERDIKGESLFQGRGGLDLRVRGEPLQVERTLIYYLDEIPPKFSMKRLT

重组Human-CD3-FC蛋白 = molecular target: T2, 重组Human-CD3-FC蛋白 (human); assay: ELISA, coated CD3-FC 200 ng/ml, HRP goat anti-human Fab
T2 chain: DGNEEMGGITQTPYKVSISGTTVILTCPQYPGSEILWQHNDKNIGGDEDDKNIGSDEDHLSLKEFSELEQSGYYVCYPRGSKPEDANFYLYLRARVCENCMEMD

B1: KM4097HV3aLV0人源化单克隆抗体 (抗TROP-2单抗阳性对照) (antibody, V domains shown)
VH: QVQLVQSGPEVKKPGASVKVSCKASGYTFTIYWLGWVRQAPGQGLEWMGNIFPGSAYINYNEKFKGKVTITADTSTSTAYMELSSLRSEDTAVYFCAREGSNSGYWGQGTLVTVSS
VL: DIVMTQSPDSLAVSLGERATINCKSSQSLLNSGNQQNYLAWYQQKPGQPPKLLIYGASTRESGVPDRFSGSGSGTDFTLTISSLQAEDVAVYYCQSDHIYPYTFGQGTKLEIKR
notes: IgG (detected with anti-human Fc); also called 阳性对照抗TROP-2单抗
- EC50 (重组Human-TROP-2-HIS蛋白): 0.0261 nM

B2: 人源化SP34 (抗CD3单抗阳性对照) (antibody, human IgG1, kappa, V domains shown)
VH: EVQLVESGGGLVQPGGSLRLSCAASGFTFNTYAMNWVRQAPGKGLEWVARIRSKYNNYATYYADSVKDRFTISRDDSKNTLYLQMNSLRAEDTAVYYCVRHGNFGNSYVSWFAYWGQGTLVTVSS
VL: QAVVTQEPSLTVSPGGTVTLTCRSSTGAVTTSNYANWVQQKPGQAPRGLIGGTNKRAPGVPARFSGSLLGGKAALTLSGAQPEDEAEYYCALWYSNLWVFGQGTKVEIKR
notes: Full-length humanised SP34: VH + human IgG1 constant region, VL + human Kappa constant region; also called 阳性对照CD3单抗; 人源化SP34单克隆抗体
- EC50 (重组Human-CD3-FC蛋白): 0.0618 nM
